Test results reported in patent US9394339B2, “Stabilized formulations of peptides and proteins protecting against non-enzymatic degradation” (Lyotropic Therapeutics, Inc., priority 2007, dated 2016).
Entries after “also recorded” stand apart in the source; their conditions may differ. Where two headings read alike, the source gives them in different places.

What was measured:
[1] = cited from earlier work; for T1/2 (half-life, deamidation): buffer
[2] = accepted approximate value, dilute aqueous solution; cited from earlier work
[3] = test system: decapeptide RCNSGRFNGG-NH2; test: Decapeptide accelerated stability test, potency of intact peptide by HPLC; assay type: physicochemical
Description: To begin with, a decapeptide was synthesized by request at the Protein Facility of the Iowa State University Office of Biotechnology, using standard peptide synthesis methodology.
Samples containing this decapeptide were prepared under eight different conditions at two different pH values, pH 7 and 4. […] The preparation of these samples is now described. The ratios indicated are molar ratios of organic anion to decapeptide.
Into a sterile 15 mL plastic centrifuge tube (Corning Incorporated, Corning, N.Y.) was placed 0.0021 g decapeptide (Iowa State University, Ames, Iowa) and 7.0 g sterile water (Spectrum Chemicals Mfg. Corp., Gardena, Calif.). The pH was adjusted using 1.0N HCl (Spectrum Chemicals Mfg. Corp., Gardena, Calif.) to a pH of 4. Into a new 15 mL plastic centrifuge tube was placed 3.5 mL of a pH 4 solution. The pH was adjusted using only the necessary amount of 1.0N NaOH (Spectrum Chemicals Mfg. Corp., Gardena, Calif.) to a final pH of 7.
(anion:asparaginyl molar ratio). […] Into a new 15 mL plastic centrifuge tube was placed 3.5 mL of a pH 4 solution. The pH was adjusted using only the necessary amount of 1.0N NaOH to a final pH of 7.
(§1) Into a new 15 mL plastic centrifuge tube was placed 3.5 mL of a pH 4 solution. The pH was adjusted using only the necessary amount of 1.0N NaOH to a final pH of 7.
as §1, §1
Into a sterile 1.5 mL microcentrifuge tube was placed a 0.5 g portion of each sample condition and were placed at −18° C. This was the initial sample. The remaining pH 4 samples were placed at 65° C. until completion of the experiment. The remaining pH 7 samples were placed at 40° C. until completion of the experiment. […] This was the day 1 sample. The frozen initial and day 1 samples were thawed to room temperature, and assayed using HPLC.
The samples at the various timepoints were then analyzed with HPLC using the following conditions.
System: Schimadzu SCL-10A VP with diode array detector
Column: Phenomenex C18 Luna 5 um, 250×4.6 mm
Mobile Phase: Isocratic 90% (0.1%) TFA in water, 10% (0.08%) TFA in acetonitrile
The potency (mg/mL of intact peptide) was determined by integrating under this peak (performed by the instrument), and normalizing according to a standard run of the decapeptide.
The sample stressing and HPLC were applied as above.
(anion:asparaginyl ratio). Into a sterile 15 mL plastic centrifuge tube was placed 0.0021 g decapeptide, 0.0029 g N-acetyl-D-tryptophan (MP Biomedicals, Solon, Ohio) and 7.0 g sterile water. The pH was adjusted using 1.0N HCl to a pH of 4. Into a new 15 mL plastic centrifuge tube was placed 3.5 mL of a pH 4 solution. The pH was adjusted using only the necessary amount of 1.0N NaOH to a final pH of 7. Since the molar ratio of acetyltryptophan to decapeptide is 6:1, and each decapeptide has two asparaginyl residues, the molar ratio of NAT to asparagine is 3:1.
The pH was adjusted using only the necessary amount of 1.0N NaOH to a final pH of 7.

[4] = aqueous solution, pH 7.4, 37° C., Tris-HCl buffer
[5] = pH 7, 24 hours at 40° C., molar ratio anion:Asn 3

Compound	T1/10 (time to 10% degradation by deamidation) [1, 4]	further results
Stem cell factor (1EXZ): human protein	27 days	
Mitogen-activated protein kinase P38 (1WFC): human protein	17 days	
CC(O)C(=O)O (stereo not shown) [lactic, lactic acid]		pKa (first listed) [2]: 3.95
1-Antitrypsin (1QLP): human protein	6.1 days	
Interleukin-4 (2CYK): human protein	41 days	
Lysophospholipase (1LCL): human protein	2.4 days	
Interleukin-10 (2ILK): human protein	3.8 days	
Triose phosphate isomerase (1HTI): human protein	7.9 days	
N-acetylgalactosamine-4-sulfatase (1FSU): human protein	0.93 days	
Argininosuccinate lyase (1AOS): human protein	13 days	
CC(=O)N[C@H](Cc1c[nH]c2ccccc12)C(=O)O [N-acetyltryptophanate, N-acetyl-D-tryptophan]		pKa (first listed) [2]: 3.37; potency remaining ([3]; pH 4, stressed at 65° C., anion:Asn 3:1): 74%; Relative potency [3, 5]: 1.028; Relative potency ([3]; pH 7, 24 hours at 40° C., molar ratio anion:Asn 3, listed as N-acetyltryptophan): completely retained; also recorded: no detectable degradation
CCCCCCCC/C=C\CCCCCCCC(=O)O [oleic]		pKa (first listed) [2]: 4.5
Annexin V (1ANX): human protein	33 days	
O=C1NS(=O)(=O)c2ccccc21 [Saccharin, 2,3-dihydro-3-oxobenzisosulfonazole]		Relative potency ([3]; pH 4, 24 hours at 65° C., anion:Asn 10:1): 87%; Relative potency ([3]; pH 7, 24 hours at 40° C., molar ratio anion:Asn 1): 0.080; Relative potency ([3]; pH 7, 24 hours at 40° C., molar ratio anion:Asn 1, listed as saccharin): much less enhancement; Relative potency [3, 5]: 0.008; Relative potency ([3]; pH 7, 24 hours at 40° C., molar ratio anion:Asn 10): 0.523; Relative potency ([3]; pH 7, 24 hours at 40° C., molar ratio anion:Asn 10, listed as saccharin): enhanced stability
Fibroblast growth factor (2AFG): human protein	3.2 days	
Growth hormone receptor (1A22): human protein	0.36 days	
Platelet factor 4-HPF4 (1RHP): human protein	35 days	
C[C@H](CCC(=O)NCC(=O)O)[C@H]1CC[C@H]2[C@@H]3[C@H](O)C[C@@H]4C[C@H](O)CC[C@]4(C)[C@H]3C[C@H](O)[C@]12C [glycocholic]		pKa (first listed) [2]: 3.6
Growth hormone (1HGU): human protein	7.8 days	
D-Glyceraldehyde-3-phosphate dehydrogenase (3GPD): human protein		T1/2 (half-life, deamidation) ([1]; pH 7.4): 4.2 days; T1/10 (time to 10% degradation by deamidation) ([1]; pH 7.4): 0.64 days
Malic enzyme (1EFK): human protein		T1/2 (half-life, deamidation) ([1]; pH 7.4): 140 days; T1/10 (time to 10% degradation by deamidation) ([1]; pH 7.4): 21 days

Compound	T1/10 (time to 10% degradation by deamidation) [1, 4]	further results
Interleukin-1 (2I1B): human protein	43 days	
Carbonic anhydrase I (1HCB): human protein	6.8 days	
Intestinal fatty acid binding protein (3IFB): human protein		T1/2 (half-life, deamidation) ([1]; pH 7.4): 7.6 days; T1/10 (time to 10% degradation by deamidation) ([1]; pH 7.4): 1.2 days
Insulin (2HIU): human protein		T1/2 (half-life, deamidation) ([1]; pH 7.4): 260 days; T1/10 (time to 10% degradation by deamidation) ([1]; pH 7.4): 40 days
NAD(P)H dehydrogenase (1QBG): human protein	53 days	
Creatine kinase ( 1QK1): human protein		T1/2 (half-life, deamidation) ([1]; pH 7.4): 84 days; T1/10 (time to 10% degradation by deamidation) ([1]; pH 7.4): 13 days
Cl [Hydrochloric, hydrochloric acid]		potency remaining ([3]; pH 7, 24 hours at 40° C., HCl control, no organic anion, listed as HCl): less than 7%; potency remaining ([3]; pH 7, 24 hours at 40° C., HCl control, no organic anion, listed as hydrochloric acid control): under 7%
Cyclophilin A (1AWQ): human protein	1.3 days	
GTP-binding protein (1DOA): human protein	6.8 days	
Interleukin-6 (1IL6): human protein	8.5 days	
C[C@H](CCC(=O)O)[C@H]1CC[C@H]2[C@@H]3CC[C@@H]4C[C@H](O)CC[C@]4(C)[C@H]3C[C@H](O)[C@]12C [deoxycholic, deoxycholic acid]		pKa (first listed) [2]: 5.7
Homeobox protein PAX-6 (6PAX): human protein	5.9 days	
Transforming growth factor-two (1KLA): human protein	70 days	
Peptidyl-prolyl cis-trans isomerase (1F8A): human protein	0.36 days	
O=C(O)/C=C\C(=O)O [maleic]		pKa (first listed) [2]: 3.9
Interleukin-8 (1IL8): human protein	14 days	
Angiogenin (1A4Y): human protein	3.2 days	
Apoptosis regulator bax (1F16): human protein	26 days	
Proinsulin (1EFE): human protein	17 days	
-Chymotrypsinogen (1CGI): human protein	2.4 days	
